± gives the standard deviation of the averaged measurements.
system: ATP; assay: switch fluorescence ratio, 500 uM ATP over buffer (Cy3 cluster intensity, sum of 5 cycles each) (fold (ratio)); higher = stronger signal-on switching upon ATP binding; sequences stand for … in TCGTCGGCAGCGTCAGATGTGTATAAGAGACAGTTTTTTTTTTTTTTTTTTTTTTTTT…TC; details: aptamer strand: ATP DNA aptamer (quencher-CACCTGGGGGAGTATTGCGGAGGAAGG + anchor), 100 nM annealed; ATP concentration: 500 uM
Method in brief: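 Cy3-labelled switching-strand clusters on a modified Illumina MiSeq flow-cell were annealed to 100 nM quencher-labelled ATP aptamer and imaged first in selection buffer, then after 15 min with 500 uM ATP at 22 °C. NaOH stripping and re-annealing separated each of five buffer/ATP cycles, and clusters outside 100-1000 RFU were excluded. The fluorescence ratio sums target-cycle Cy3 intensity over buffer-cycle Cy3 intensity per cluster and averages it per switch-domain sequence.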
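Also: ATP exposure 15 min at 22 °C before imaging.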

ATGGGATTGG and TTTAGGGGCT are within error of each other in switch fluorescence ratio: 0.962 ± 0.02 for the first, 0.9764 ± 0.0076 for the second.

CCAGTTTACT and AACGGTTGGC are within error of each other in switch fluorescence ratio: 1.01 ± 0.042 for the first, 0.975 ± 0.017 for the second.

GGCAAAACAG and GGCGTTGGGG are within error of each other in switch fluorescence ratio: 0.996 ± 0.032 for the first, 1 ± 0.023 for the second.

First: ATGATTAAGG
Second: TGAATGATTT
The switch fluorescence ratio of the first is higher: 1.015 ± 0.0029 for the first, 0.967 ± 0.027 for the second.

AGTCGGCGGA and TGACCAATGT are within error of each other in switch fluorescence ratio: 0.998 ± 0.014 for the first, 1 ± 0.028 for the second.

CAGAGTCCTC and TTCAAAGGCC are within error of each other in switch fluorescence ratio: 1.01 ± 0.027 for the first, 0.981 ± 0.049 for the second.

TTTATTTGTT and GCGATGAGAG are within error of each other in switch fluorescence ratio: 1 ± 0.021 for the first, 1.03 ± 0.026 for the second.

CTTATTTCGT and CTGGTCATGT are within error of each other in switch fluorescence ratio: 1.001 ± 0.0018 for the first, 0.995 ± 0.05 for the second.

First: GGGCTAACCT
Second: GTCGGGGGAT
The switch fluorescence ratio of the first is higher: 1.32 ± 0.043 for the first, 1.02 ± 0.014 for the second.

First: CGGCAGTAAT
Second: TGTGTTAGTA
The switch fluorescence ratio of the first is higher: 1.471 ± 0.003 for the first, 0.9602 ± 0.0053 for the second.

GCGCTCGGCA and GGCAGGGTTT are within error of each other in switch fluorescence ratio: 1.019 ± 0.00084 for the first, 0.99 ± 0.037 for the second.

CTATGACGTT and TTTATAAATT are within error of each other in switch fluorescence ratio: 0.998 ± 0.019 for the first, 0.972 ± 0.032 for the second.

GTATGCGTGT and TTTTGTTTCC are within error of each other in switch fluorescence ratio: 1.04 ± 0.034 for the first, 1.01 ± 0.062 for the second.

TATTTATAGC and CATTGCAA are within error of each other in switch fluorescence ratio: 1.02 ± 0.013 for the first, 1 ± 0.085 for the second.

TGTGGGGGAA and TTAAAAAATG are within error of each other in switch fluorescence ratio: 1.2 ± 0.31 for the first, 1.03 ± 0.042 for the second.

CGTATGCAGT and GGGGGGTGTA are within error of each other in switch fluorescence ratio: 1.01 ± 0.011 for the first, 1 ± 0.055 for the second.

GGGTACCTGT and GGGCATGAAG are within error of each other in switch fluorescence ratio: 1.01 ± 0.034 for the first, 1.016 ± 0.0066 for the second.

Compared with ACCGGTGCTT, TAACGTGAGT is lower in switch fluorescence ratio: 1.04 ± 0.032 for the first, 0.988 ± 0.016 for the second.

GGCCTTTTGA and TGTCAATTGG are within error of each other in switch fluorescence ratio: 0.997 ± 0.015 for the first, 0.984 ± 0.021 for the second.

ACTATCGAAA and GGGGCTATAT are within error of each other in switch fluorescence ratio: 1.09 ± 0.03 for the first, 1.39 ± 0.62 for the second.

TGTGGTATGG and GACTAAGTGT are within error of each other in switch fluorescence ratio: 1.008 ± 0.0065 for the first, 1 ± 0.022 for the second.

First: TTGATGATCC
Second: ATCGGAATGT
The switch fluorescence ratio of the first is lower: 0.9781 ± 0.0034 for the first, 1.012 ± 0.0063 for the second.

TCGGAGATAT and AAGGTCGCGG are the same in switch fluorescence ratio: 1 ± 0.045 for the first, 1 ± 0.017 for the second.

CGTATTATTA and TGTAGTCCGT are within error of each other in switch fluorescence ratio: 0.988 ± 0.03 for the first, 0.982 ± 0.0055 for the second.

CATATGGGGA and TAGGTTTTTG are within error of each other in switch fluorescence ratio: 0.982 ± 0.011 for the first, 1.01 ± 0.058 for the second.

Going from TGTTTTGGG to CTTGTAGCAG, the switch fluorescence ratio rises from 0.992 ± 0.042 to 1.09 ± 0.021.

Compared with GCGGCTTGGG, CGGTTTGACT is lower in switch fluorescence ratio: 1.03 ± 0.055 for the first, 0.9563 ± 0.0063 for the second.

ATTCTTTTTT and AATCTGGGGG are within error of each other in switch fluorescence ratio: 0.997 ± 0.024 for the first, 1.01 ± 0.018 for the second.

ACTGTGGACA and ATAGAGCTTT are within error of each other in switch fluorescence ratio: 1.02 ± 0.016 for the first, 1.07 ± 0.085 for the second.

First: CTAATTTACG
Second: CTGTATTCGC
The switch fluorescence ratio of the first is lower: 1.06 ± 0.028 for the first, 1.172 ± 0.0037 for the second.

Compared with TGGGGTGCCG, GCGTTTGGTA is lower in switch fluorescence ratio: 1.12 ± 0.039 for the first, 0.988 ± 0.04 for the second.

Compared with GGCGGATCAG, ACATTTTTAT is higher in switch fluorescence ratio: 0.9827 ± 0.0023 for the first, 1.03 ± 0.015 for the second.

CTAAGGGGTT and TATGAGAGGC are within error of each other in switch fluorescence ratio: 0.991 ± 0.036 for the first, 1.04 ± 0.035 for the second.

TTTAGACGTT and TGCGCGAAAG are within error of each other in switch fluorescence ratio: 1.02 ± 0.016 for the first, 0.98 ± 0.042 for the second.

TAATGGGTTA and GCGGGTTAAG are within error of each other in switch fluorescence ratio: 1 ± 0.037 for the first, 0.9832 ± 0.0023 for the second.

GGGTTTTTAC and AAATGGGAAA are within error of each other in switch fluorescence ratio: 1.03 ± 0.033 for the first, 1.06 ± 0.084 for the second.

Compared with GAAAAGCCCC, GGTGAAGACC is lower in switch fluorescence ratio: 1.09 ± 0.059 for the first, 0.9598 ± 0.0086 for the second.

AGAGTCAGGC and TAGGGGGGTG are within error of each other in switch fluorescence ratio: 1.07 ± 0.044 for the first, 1.02 ± 0.025 for the second.

First: TGAAAGGCGT
Second: TCAGCATGCG
The switch fluorescence ratio of the first is higher: 0.9862 ± 0.0072 for the first, 0.933 ± 0.025 for the second.

TTCCTGAGTT and GCGATTTCGG are within error of each other in switch fluorescence ratio: 1.16 ± 0.21 for the first, 0.985 ± 0.023 for the second.

GCAAATGGGA and TGGCTCAGTC are within error of each other in switch fluorescence ratio: 1.05 ± 0.017 for the first, 0.997 ± 0.044 for the second.

TTTGATGCAG and GGCGTGTCGC are within error of each other in switch fluorescence ratio: 0.993 ± 0.032 for the first, 0.9852 ± 0.0037 for the second.

GGGTGCGGCG and ATTATGAATG are within error of each other in switch fluorescence ratio: 0.968 ± 0.035 for the first, 0.989 ± 0.0071 for the second.

TTTTAAAACA and GCCGGGGACG are within error of each other in switch fluorescence ratio: 1.02 ± 0.029 for the first, 1.01 ± 0.011 for the second.

Going from GCCCCCAGCG to TGCTGTACGG, the switch fluorescence ratio falls from 4.61 ± 0.65 to 1.01 ± 0.046.

GGGTTTAGAC and GCCCTCCAGA are within error of each other in switch fluorescence ratio: 0.982 ± 0.032 for the first, 1.14 ± 0.13 for the second.

CGGTAATGGG and TTGCATAGTG are within error of each other in switch fluorescence ratio: 0.943 ± 0.031 for the first, 0.9536 ± 0.0026 for the second.

AGGGGGGTTC and GTGGGCCAGG are within error of each other in switch fluorescence ratio: 0.994 ± 0.023 for the first, 1.06 ± 0.094 for the second.

AGGTGTAGTG and AATGTGACAT are within error of each other in switch fluorescence ratio: 0.987 ± 0.016 for the first, 0.982 ± 0.033 for the second.

AAAGGTAGTA and TGGTATAATC are within error of each other in switch fluorescence ratio: 0.9934 ± 0.0097 for the first, 1.001 ± 0.0038 for the second.

ATACTCGTTA and CGCACTTGGG are within error of each other in switch fluorescence ratio: 1.01 ± 0.024 for the first, 0.99283 ± 0.0007 for the second.

ATAGCTAACT and TGATGGCGGT are within error of each other in switch fluorescence ratio: 1.02 ± 0.022 for the first, 1.04 ± 0.065 for the second.

TCGTCTCTTT and GGGTACTGAT are within error of each other in switch fluorescence ratio: 0.986 ± 0.018 for the first, 1.01 ± 0.024 for the second.

GGGTGGTTGG and TTGAATTGCT are within error of each other in switch fluorescence ratio: 0.999 ± 0.0088 for the first, 0.986 ± 0.032 for the second.

Compared with AACAGGAAAT, CCGCAGAGCA is higher in switch fluorescence ratio: 0.9596 ± 0.0032 for the first, 1.79 ± 0.043 for the second.

GAGGGAATCG and GGGGTGTCGG are within error of each other in switch fluorescence ratio: 0.9635 ± 0.001 for the first, 1.05 ± 0.14 for the second.

TGGGGGTTGT and TTCGTAAAAA are within error of each other in switch fluorescence ratio: 0.987 ± 0.025 for the first, 1.09 ± 0.089 for the second.

First: GGTTCACTTT
Second: AGATTTGTGT
The switch fluorescence ratio of the first is higher: 1.02 ± 0.033 for the first, 0.959 ± 0.024 for the second.

Going from ATTGGGGAGG to ACATGACAGA, the switch fluorescence ratio rises from 0.974 ± 0.012 to 1.08 ± 0.038.

TGCTGTTCTG and ATTTTTTCAG are the same in switch fluorescence ratio: 1.032 ± 0.0019 for the first, 1.03 ± 0.014 for the second.

First: ACCGCTTACG
Second: ACAATAATAT
The switch fluorescence ratio of the first is higher: 1.56 ± 0.12 for the first, 1 ± 0.028 for the second.

Going from GGAGGCAGGA to GGGGGAGTGA, the switch fluorescence ratio falls from 1.015 ± 0.0036 to 0.972 ± 0.029.

Compared with ATGGCAGGGC, GGACACGGTA is higher in switch fluorescence ratio: 1.01 ± 0.016 for the first, 1.12 ± 0.029 for the second.

First: ACACAGGCTA
Second: AGACAGGAGA
The switch fluorescence ratio of the first is higher: 1.027 ± 0.005 for the first, 0.985 ± 0.019 for the second.

ATGCTTGCTG and CCATCATTTT are within error of each other in switch fluorescence ratio: 0.9819 ± 0.0052 for the first, 0.99 ± 0.041 for the second.

AGTGCCGGCA and CATAGGAACG are within error of each other in switch fluorescence ratio: 1.02 ± 0.051 for the first, 0.955 ± 0.045 for the second.

AGTTGAGGGG and TGGTGGGTCG are within error of each other in switch fluorescence ratio: 0.985 ± 0.034 for the first, 1.08 ± 0.069 for the second.

AGTTGATCCA and GGTGTGTATC are within error of each other in switch fluorescence ratio: 0.982 ± 0.015 for the first, 1.01 ± 0.02 for the second.

CTTTCAGGCT and AGTGGTTGAA are within error of each other in switch fluorescence ratio: 0.984 ± 0.016 for the first, 0.99 ± 0.028 for the second.

AATGGGGGCG and TTGCTGGGCC are within error of each other in switch fluorescence ratio: 0.9633 ± 0.0089 for the first, 1.02 ± 0.088 for the second.

Going from CCGGGGCTGG to ACTGAAGTTA, the switch fluorescence ratio falls from 1.04 ± 0.037 to 0.98 ± 0.018.

GGGCTGGGGG and TTTAACCTTT are within error of each other in switch fluorescence ratio: 1.01 ± 0.057 for the first, 1.05 ± 0.051 for the second.

First: TTACTGTAAT
Second: CAATTGGATG
The switch fluorescence ratio of the first is higher: 1.18 ± 0.037 for the first, 1 ± 0.073 for the second.

ACGGGGAATG and AGTATAGTAG are within error of each other in switch fluorescence ratio: 1.01 ± 0.056 for the first, 0.983 ± 0.019 for the second.

Compared with ACCCAGAAGG, AAATTTTGAA is lower in switch fluorescence ratio: 1.08 ± 0.043 for the first, 0.977 ± 0.021 for the second.

TCACGCTGTG and ACTATTTCGA are the same in switch fluorescence ratio: 1.01 ± 0.036 for the first, 1.01 ± 0.03 for the second.

AAATTTTGAG and ACCAAACCGG are within error of each other in switch fluorescence ratio: 1.02 ± 0.032 for the first, 1.039 ± 0.0079 for the second.

Going from GGGTTAATCT to TCCGTTAAGA, the switch fluorescence ratio rises from 0.9983 ± 0.0016 to 1.083 ± 0.0019.

Work on ACTAGGGTCT yielded a switch fluorescence ratio of 1 ± 0.081.

From the supplement of paper PMC10126150
